Drawing on the RNAGym collection of RNA variant scans (doi:10.7554/elife.90254), this text covers self-cleavage for 39 variants.

First the molecules themselves.
B1: LINE1-full (parent)
chain: UACGUAGGUGGUUUUCCCCUGAUAGUGCUAAGGGGGCCUGGAAGUUUGGACUGGGCAGAGCUCAACACAGCGUGGCAAAGUGGCUGUGGCUAGACUGCCUCUCUGGAUUCCUCGUCACUCAGCAGGGCAUCUCUGAGAGAAAUGCC

Variants of B1 are the subject of this data set. Description: self-cleavage, relative activity (ratio to wild type); higher = more cleavage; in vitro, sequencing; the parent is a self-cleaving ribozyme.
For the variant UACGUAGGUGGUAUUCCCCUGAUAGUGCUAAGGGGGCCUGGAAGUUUGGACUGGGCAGGGCUCAACACAGCGUGGCAAAGUGGCUGUGGCUAGACUGCCUCUCUGGAUUCCUCGUCACUCAGCAGGGCAUCUCUGAGAGAAAUGCC [U13A A59G], the self-cleavage was 0.07. On to UACGUAGGUGGGUUUCCCCUGAUAGUGCUAAGGGGGCCUGGAAGUUUGGACUGGGCAGAGCUCAACACAGCGUGGCAAAGUGGCUGUGGCUAGACUGCCUCUCUGGAUACCUCGUCACUCAGCAGGGCAUCUCUGAGAGAAAUGCC [U12G U109A], for which the self-cleavage amounted to 1.47. In the case of UACGUAGGUGGUAUUCCCCUGAUAGUGCUAAGGGGGCCUGGAAGUUUGGACUGGGCAGAGCUCAACACAGCGUGGCAAAGUGGCUGUGGCUAGACUGCCUCUCUGGAUUCCUCGUCACUCAGCGGGGCAUCUCUGAGAGAAAUGCC [U13A A124G], the self-cleavage stood at 0.97.

In the case of UACGUAGGUGGUAUUCCCCUGAUAGUGCUAAGGGGGCCUGGAAGUUUGGACUGGGCAGAGCUCAACACAGCGUGGCAAAGUGGCUGUGGCUAGACUGCCUCUCUGGAUUCCUCGUCACUCAGCUGGGCAUCUCUGAGAGAAAUGCC [U13A A124U], the self-cleavage is 0.98. Regarding UACGUAGGUGGGUUUCCCCUGAUAGUGCUAAGGGGGCCUGGAAGUUUGGACUGGGCAGAGCUCAACACAGCGUGGCAAAGUGGCUGUGGCUAGACUGCCUCUCUGGAAUCCUCGUCACUCAGCAGGGCAUCUCUGAGAGAAAUGCC [U12G U108A], the self-cleavage came to 0.77. For UACGUAGGUGGGUUUCCCCUGAUAGUGCUAAGGGGGCCUGGAAGUUUGGACUGGGCAGAGCUCAACACAGCGUGGCAAAGUGGCUGUGGCUAGACUGCCUCUCUGGACUCCUCGUCACUCAGCAGGGCAUCUCUGAGAGAAAUGCC [U12G U108C], the self-cleavage turned out to be 1.52. As to UACGUAGGUGGUAUUCCCCUGAUAGUGCUAAGGGGGCCUGGAAGUUUGGACUGGGCAGAGCUCAACACAGCGUGGCAAAGUGGCUGUGGCUAGACUGCCUCUCUGGAUUCCUCGUCACUCGGCAGGGCAUCUCUGAGAGAAAUGCC [U13A A121G], the self-cleavage was found to be 0.88.

Consider UACGUAGGUGGUAUUCCCCUGAUAGUGCUAAGGGGGCCUGGAAGUUUGGAAUGGGCAGAGCUCAACACAGCGUGGCAAAGUGGCUGUGGCUAGACUGCCUCUCUGGAUUCCUCGUCACUCAGCAGGGCAUCUCUGAGAGAAAUGCC [U13A C51A], for which the self-cleavage worked out at 0.75.

Take UACGUAGGUGGUAUUCCCCUGAUAGUGCUAAGGGGGCCUGGAAGUUUGGACUGGGCAGAGCUCAGCACAGCGUGGCAAAGUGGCUGUGGCUAGACUGCCUCUCUGGAUUCCUCGUCACUCAGCAGGGCAUCUCUGAGAGAAAUGCC [U13A A65G]: the self-cleavage was determined as 0.08. As to UACGUAGGUGGUAUUCCCCUGAUAGUGCUAAGGGGGCCUGGAAGUUUGGACUGGGCAGAGCUCAUCACAGCGUGGCAAAGUGGCUGUGGCUAGACUGCCUCUCUGGAUUCCUCGUCACUCAGCAGGGCAUCUCUGAGAGAAAUGCC [U13A A65U], the self-cleavage is 0.09. In the case of UACGUAGGUGGUAUUCCCCUGAUAGUGCUAAGGGGGCCUGGAGGUUUGGACUGGGCAGAGCUCAACACAGCGUGGCAAAGUGGCUGUGGCUAGACUGCCUCUCUGGAUUCCUCGUCACUCAGCAGGGCAUCUCUGAGAGAAAUGCC [U13A A43G], the self-cleavage was 0.96. As for UACGUAGGUGGUAUUCCCCUGAUAGUGCUAAGGGGGCCUGGAAGUUUGGACUGGGCAGAGCUCAACACAGCGUGGCAAAGUGGCUGUGGCUAGACUGCCUCUCUGGAUUCCUCGUCACUCAGCAGGGCAUCUCUGAGAGUAAUGCC [U13A A140U], the self-cleavage came to 0.89.

On to UACGUAGGUGGGUUUCCCCUGAUAGUGCUAAGGGGGCCUGGAAGUUUGGACUGGGCAGAGCUCAACACAGCGUGGCAAAGUGGCUGUGGCUAGACUGCCUCUCAGGAUUCCUCGUCACUCAGCAGGGCAUCUCUGAGAGAAAUGCC [U12G U104A], for which the self-cleavage came to 1.76. As for UACGUAGGUGGUAUUCCCCUGAUAGUGCUAAGGGGGCCUGGAAGUUUGGACUGGGCAGAGCUCAACACAGCGUGGCAAAGUGGCUGUGGCUAGACUGCCUCUCUGGAUUCCUCGUCACUCAGCAGGGCAUCUCUGAGGGAAAUGCC [U13A A138G], the self-cleavage came to 1.22. Under UACGUAGGUGGUAUUCCCCUGAUAGUGCUGAGGGGGCCUGGAAGUUUGGACUGGGCAGAGCUCAACACAGCGUGGCAAAGUGGCUGUGGCUAGACUGCCUCUCUGGAUUCCUCGUCACUCAGCAGGGCAUCUCUGAGAGAAAUGCC [U13A A30G] stands 0.97; under UACGUAGGUGGUAUUCCCCUGAUAGUGCUAAGGGGGCCUGGAAGUUUGGACUGGGCAGAGCUCAACACAGAGUGGCAAAGUGGCUGUGGCUAGACUGCCUCUCUGGAUUCCUCGUCACUCAGCAGGGCAUCUCUGAGAGAAAUGCC [U13A C71A], 0.12; under UACGUAGGUGGUAUUCCCCUGAUAGUGCUAAGGGGGCCUGGAAGUUUGGUCUGGGCAGAGCUCAACACAGCGUGGCAAAGUGGCUGUGGCUAGACUGCCUCUCUGGAUUCCUCGUCACUCAGCAGGGCAUCUCUGAGAGAAAUGCC [U13A A50U], 0.58. Turning to UACGUAGGUGGUAUUCCCCUGAUAGUGCUAAGGGGGCCUGGAAGUUUGGACUGGGCAGAGCUCAACACAGCGUGGCAAAGUGGCUGUGGCUAGACUGCCUCUCUGGAUUCCUCGUCACUCAGCAGGGCAUCUAUGAGAGAAAUGCC [U13A C133A], the self-cleavage is 0.97.

As to UACGUAGGUGGUAUUCCCCUGGUAGUGCUAAGGGGGCCUGGAAGUUUGGACUGGGCAGAGCUCAACACAGCGUGGCAAAGUGGCUGUGGCUAGACUGCCUCUCUGGAUUCCUCGUCACUCAGCAGGGCAUCUCUGAGAGAAAUGCC [U13A A22G], the self-cleavage was 1.05.

For the variant UACGUAGGUGGUAUUCCCCUGAUAGUGCUAAGGGGGCCUGGAAGUUUGGACUGGGCAGAGCUCAACACAGCGUGGCAAAGUGGCUGUGGCUAGACUGCCUCUCUGGAUUCCUCGUCACUCAGCAGGGCAUCUCUGAGAGAGAUGCC [U13A A141G], the self-cleavage came out at 1.26. For the variant UACGUAGGUGGUAUUCCCCUGAUAGUGCUAAGGGGGCAUGGAAGUUUGGACUGGGCAGAGCUCAACACAGCGUGGCAAAGUGGCUGUGGCUAGACUGCCUCUCUGGAUUCCUCGUCACUCAGCAGGGCAUCUCUGAGAGAAAUGCC [U13A C38A], the self-cleavage came to 0.96. UACGUAGGUGGUAUUCCCCUGAUAGUGCUAAGGGGGCCUGGAAGUUUGGACUGGGCUGAGCUCAACACAGCGUGGCAAAGUGGCUGUGGCUAGACUGCCUCUCUGGAUUCCUCGUCACUCAGCAGGGCAUCUCUGAGAGAAAUGCC [U13A A57U]: the self-cleavage was found to be 0.06. For UACGUAGGUGGUAUUCCCCUGAUAGUGCUAAGGGGGCCUGGAAGUUUGGACUGGGCGGAGCUCAACACAGCGUGGCAAAGUGGCUGUGGCUAGACUGCCUCUCUGGAUUCCUCGUCACUCAGCAGGGCAUCUCUGAGAGAAAUGCC [U13A A57G], the self-cleavage stood at 0.51.

On to UACGUAGGUGGGUUUCCCCUGAUAGUGCUAAGGGGGCCUGGAAGUUUGGACUGGGCAGAGCUCAACACAGCGUGGCAAAGUGGCUGUGGCUAGACUGCCUCUCUGGAUUCCUCGUCACUCAGCAGGGCAUCUCCGAGAGAAAUGCC [U12G U134C], for which the self-cleavage was 1.19. Under UACGUAGGUGGUAUUCCCCUGAUAGUGCUAAGGGGGCCUGGAAGUUUGGACUGGGCAGAGCUCAACACAGCGUGGCAAAGUGGCUGUGGCUAGACUGCCUCUAUGGAUUCCUCGUCACUCAGCAGGGCAUCUCUGAGAGAAAUGCC [U13A C103A] stands 1.04; under UACGUAGGUGGUAUUCCCCUGAUAGUGCUAAGGGGGCCUGGAAGUUUGGACUGGGCAGAGCUCAACACAGCGUGGCAAAGUGGCUGUGGCUAGACUGCCUCUCUGGAUUACUCGUCACUCAGCAGGGCAUCUCUGAGAGAAAUGCC [U13A C110A], 0.84.

UACGUAGGUGGGUUUCCCCUGAUAGUGCUAAGGGGGCCUGGAAGUUUGGACUGGGCAGAGCUCAACACAGCGUGGCAAAGUGGCUGUGGCUAGACUGCCUCUCUGGAUUCCUCGUCACUCAGCAGGGCAUCUCUGAGAGAAAAGCC [U12G U143A]: the self-cleavage turned out to be 0.59.

As to UACGUAGGUGGUAUUCCCCUGAUAGUGCUAAGGGGGCCUGGAAGUUUGGACUGGGCAGAGCUCAACACAGCGUGGCAGAGUGGCUGUGGCUAGACUGCCUCUCUGGAUUCCUCGUCACUCAGCAGGGCAUCUCUGAGAGAAAUGCC [U13A A78G], the self-cleavage is 0.84.

On to UACGUAGGUGGUAUUCCCCUGAUAGUGCUAAGGGGGCCUGGAAGUUUGGACUGGGCAGAGCUCAACACAGCGUGGCAAAGUGGCUGUGGCUAGACUGCUUCUCUGGAUUCCUCGUCACUCAGCAGGGCAUCUCUGAGAGAAAUGCC [U13A C99U], for which the self-cleavage was found to be 0.46. UACGUAGGUGGGUUUCCCCUGAUAGUGCUAAGGGGGCCUGGAAGUUUGGACUGGGCAGAGCUCAACACAGCGUGGCAAAGUGGCUGUGGCUAGACUGCCUCUCUGGAUUCCUCGUCACGCAGCAGGGCAUCUCUGAGAGAAAUGCC [U12G U119G]: the self-cleavage was found to be 0.8. As to UACGUAGGUGGUAUUCCCCUGAUAGUGCUACGGGGGCCUGGAAGUUUGGACUGGGCAGAGCUCAACACAGCGUGGCAAAGUGGCUGUGGCUAGACUGCCUCUCUGGAUUCCUCGUCACUCAGCAGGGCAUCUCUGAGAGAAAUGCC [U13A A31C], the self-cleavage worked out at 1.52.

For UACGUAGGUGGUAUUCCCCUGAUAGUGCUAAGGGGGCCUGGAAGUUUGGACUGGGCAGAGCUCAACACAGCGUGGCAAAGUGGCUGUGGCUAGGCUGCCUCUCUGGAUUCCUCGUCACUCAGCAGGGCAUCUCUGAGAGAAAUGCC [U13A A94G], the self-cleavage worked out at 0.19.

As for UACGUAGGUGGUAUUCCCCUGAUAGUGCUAAGGGGGCCUGGAAGUUUGGACUGGGCAGAGCUCAACACAGCGUGGCAAAGUGGCUGUGGCUAGACUGCCUCUCUGGAUUCCUCGUCACUCAGCAGGGCAUCUCUGGGAGAAAUGCC [U13A A136G], the self-cleavage is 1.38. On to UACGUAGGUGGUAUUCCCCUGAUAGUGCUAAGGGGGCCUGGAAGUUUGGACUGGGCAGAGCUCAACACAGCGUGGCAAAGUGGCUGUGGCUAGACUGCCUCUCUGGAUUCCUCGUCACUCAGCAGGGCAUCUCUGUGAGAAAUGCC [U13A A136U], for which the self-cleavage was 1.22. The figure for UACGUAGGUGGUAUUCCCCUGAUAGUGCUAAGGGGGCCUGGAAGUUUGGACUGGGCAGAGCUCAACACAGCGUGGCAAAGUGGCUGUGGCUAGACUGCCUCUCUGGAUUCCUCGUCACUCAGCAGGGCGUCUCUGAGAGAAAUGCC [U13A A129G] is 1.2.

UACGUAGGUGGUAUUCCCCUGAUAGUGCUAAGGGGGCCUGGAAGUUUGGACUGGGCAGAGCUCAACACAGCGUGGCAAAGUGGCUGUGGCUAGACUGCCUCUCUGGAUUCCUCGUCACUCAGCAGGGCUUCUCUGAGAGAAAUGCC [U13A A129U]: the self-cleavage is 0.81.

As for UACGUAGGUGGUAUUCCCCUGAUAGUGUUAAGGGGGCCUGGAAGUUUGGACUGGGCAGAGCUCAACACAGCGUGGCAAAGUGGCUGUGGCUAGACUGCCUCUCUGGAUUCCUCGUCACUCAGCAGGGCAUCUCUGAGAGAAAUGCC [U13A C28U], the self-cleavage came out at 0.76.

On to UACGUAGGUGGGUUUCCCCUGAUAGUGCUAAGGGGGCCUGGAAGUUUGGACUGGGCAGAGCUCAACACAGCGUGGCAAAGUGGCUGUGGCUAGACUGCCUCUCUGGAUUCCUCGUCACUCAGCAGGGCAGCUCUGAGAGAAAUGCC [U12G U130G], for which the self-cleavage was 0.77. On to UACGUAGGUGGGUUUCCCCUGAUAGUGCUAAGGGGGCCUGGAAGUUUGGACUGGGCAGAGCUCAACACAGCGUGGCAAAGUGGCUGUGGCUAGACUGCCUCUCUGGAUUCCUCGUCACUCAGCAGGGCACCUCUGAGAGAAAUGCC [U12G U130C], for which the self-cleavage worked out at 1.43.
